This assay has as its target T1, human receptor tyrosine kinase AXL (human, UniProt P30530 26-894).
T1 construct: also called hAXL; human AXL on NIH3T3-AXL cl.7, Ratl-AXL cl.2, Hs578T, NCI-H292 and CaSki cells
T1 sequence: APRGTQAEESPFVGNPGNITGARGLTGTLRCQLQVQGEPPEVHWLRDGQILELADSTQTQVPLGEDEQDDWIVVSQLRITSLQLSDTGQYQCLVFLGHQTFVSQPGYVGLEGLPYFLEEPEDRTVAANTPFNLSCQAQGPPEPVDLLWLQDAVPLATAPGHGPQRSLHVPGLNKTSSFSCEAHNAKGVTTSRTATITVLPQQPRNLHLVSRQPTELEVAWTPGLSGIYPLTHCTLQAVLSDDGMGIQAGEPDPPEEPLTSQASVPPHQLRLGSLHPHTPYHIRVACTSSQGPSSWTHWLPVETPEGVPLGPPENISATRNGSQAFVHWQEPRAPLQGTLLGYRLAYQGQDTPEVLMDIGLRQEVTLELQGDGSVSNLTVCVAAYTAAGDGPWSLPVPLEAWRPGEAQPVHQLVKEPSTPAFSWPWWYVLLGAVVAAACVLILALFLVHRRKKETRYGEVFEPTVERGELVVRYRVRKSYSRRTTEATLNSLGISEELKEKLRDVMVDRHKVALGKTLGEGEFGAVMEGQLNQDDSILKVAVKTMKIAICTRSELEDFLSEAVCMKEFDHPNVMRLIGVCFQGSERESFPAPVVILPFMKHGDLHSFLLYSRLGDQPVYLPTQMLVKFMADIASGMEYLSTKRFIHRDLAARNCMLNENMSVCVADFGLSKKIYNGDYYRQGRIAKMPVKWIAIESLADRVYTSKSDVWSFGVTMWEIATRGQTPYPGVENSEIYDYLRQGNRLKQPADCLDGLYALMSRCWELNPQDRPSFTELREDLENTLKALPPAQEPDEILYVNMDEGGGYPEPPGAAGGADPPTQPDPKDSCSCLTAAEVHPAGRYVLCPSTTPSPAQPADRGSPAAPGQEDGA
Put plainly: FACS Scatchard, apparent KD (KDapp) on NIH3T3 cells overexpressing human AXL.

The results in this text go back to patent EP2270053A1 (U3 Pharma GmbH, dated 2011).

B1: rat anti-human AXL monoclonal antibody #11D5 (antibody, rat IgG2a, V domains shown)
VH: EVQLQESGPGLVKPSQSLSLTCSVTGYSITSNYWGWIRKFPGNKMEWIGHITNSGNTTYNPSLKSRISISRDTSRNQFFLQLNSVTTEDTATYYCAKGAFDYWGQGVMVTVSS
VL: DIQMTQSPSSMSTSLGDRVTITCRASQDIGNYLSWFQQKVGKSPRRMIYGAIKLAVGVPSRFSGSRSGSDYSLTISSLESEDMAIYYCLQYIQFPLTFGSGTKLELKR
notes: also called III11D5
Consider B1, for which the Kd was found to be 0.81 nM.

B2: chimeric anti-AXL antibody ch11D5-IgG1 (antibody, V domains shown)
VH: B1 VH
VL: B1 VL
notes: also called chm11D5; human chimeric antibody (of #11D5)
As to B2, the Kd is 0.4 nM.

B3: rat anti-human AXL monoclonal antibody #11B7 (antibody, rat IgG1, V domains shown)
VH: EVQLQESGPGLVKPSQSLSLTCSVTGYSITSNYWGWIRKFPGDKMEWMGYITYSGSTSYNPSLKSRISITRDTSKNQFFLQLNSVTSEDTATYYCAITTFYYWGQGVMVTVSS
VL: DIQMTQAPSSLPASLGDRVTITCRASQDIGNYLRWFQQKPGKSPRLMISGATNLAAGVPSRFSGSRSGSDYSLTISSLESEDMADYYCLQSKESPWTFGGGTKLELKR
notes: also called I11B7; rat anti-Axl antibody 11B7
As for B3, the Kd is 0.38 nM.

B4: chimeric anti-AXL antibody ch11B7-IgG1 (antibody, V domains shown)
VH: B3 VH
VL: B3 VL
notes: Rat 11B7 variable domains on human IgG1 / human kappa; also called chm11B7; chimeric anti-AXL mAb #11B7
Consider B4, for which the Kd came to 0.6 nM.
